T1: cynomolgus IL-2Rγ (recombinant protein and on cells) (cynomolgus, UniProt A0A2K5VGJ6 23-254)
T1 construct: also called cynomolgus IL-2RG
T1 sequence: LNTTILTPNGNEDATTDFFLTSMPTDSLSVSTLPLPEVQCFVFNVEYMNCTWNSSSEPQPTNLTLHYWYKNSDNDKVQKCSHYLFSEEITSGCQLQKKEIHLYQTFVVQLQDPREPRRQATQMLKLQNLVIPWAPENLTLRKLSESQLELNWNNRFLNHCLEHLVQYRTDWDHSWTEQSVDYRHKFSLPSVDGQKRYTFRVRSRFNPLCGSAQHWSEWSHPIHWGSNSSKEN

T2: IL2RB, Human
T2 construct: Same protein as m17, but here as recombinant protein in solution, not on CHO cells; also called human IL-2RB (AcroBiosystems); IL-2Rβ
T2 receptor chain: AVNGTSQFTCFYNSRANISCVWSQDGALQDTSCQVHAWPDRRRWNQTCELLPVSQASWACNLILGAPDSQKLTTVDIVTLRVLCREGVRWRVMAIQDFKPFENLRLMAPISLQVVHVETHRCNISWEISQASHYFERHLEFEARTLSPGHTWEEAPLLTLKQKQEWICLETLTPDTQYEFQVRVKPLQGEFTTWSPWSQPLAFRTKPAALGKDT

T3: human IL-2Rγ (recombinant protein and on cells) (human, UniProt P31785 23-262, limits assumed)
T3 construct: recombinant protein and of cells together; also called IL2RG; CD132
T3 sequence: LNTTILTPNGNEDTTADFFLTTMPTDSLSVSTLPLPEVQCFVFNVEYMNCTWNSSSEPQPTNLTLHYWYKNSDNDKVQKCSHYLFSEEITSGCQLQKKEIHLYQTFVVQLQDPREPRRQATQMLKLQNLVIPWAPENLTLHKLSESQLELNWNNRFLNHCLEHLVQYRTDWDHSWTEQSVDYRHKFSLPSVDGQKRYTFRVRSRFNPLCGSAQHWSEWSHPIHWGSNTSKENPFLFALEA

T4: human IL-2Rβγ receptor on primary human T-cells and NK-cells (PBMCs) (human, UniProt P14784 27-551; P31785 23-369)
T4 construct: Endogenous receptor on primary cells; also called dimeric IL-2Rβγ receptor complex
T4 sequence 1: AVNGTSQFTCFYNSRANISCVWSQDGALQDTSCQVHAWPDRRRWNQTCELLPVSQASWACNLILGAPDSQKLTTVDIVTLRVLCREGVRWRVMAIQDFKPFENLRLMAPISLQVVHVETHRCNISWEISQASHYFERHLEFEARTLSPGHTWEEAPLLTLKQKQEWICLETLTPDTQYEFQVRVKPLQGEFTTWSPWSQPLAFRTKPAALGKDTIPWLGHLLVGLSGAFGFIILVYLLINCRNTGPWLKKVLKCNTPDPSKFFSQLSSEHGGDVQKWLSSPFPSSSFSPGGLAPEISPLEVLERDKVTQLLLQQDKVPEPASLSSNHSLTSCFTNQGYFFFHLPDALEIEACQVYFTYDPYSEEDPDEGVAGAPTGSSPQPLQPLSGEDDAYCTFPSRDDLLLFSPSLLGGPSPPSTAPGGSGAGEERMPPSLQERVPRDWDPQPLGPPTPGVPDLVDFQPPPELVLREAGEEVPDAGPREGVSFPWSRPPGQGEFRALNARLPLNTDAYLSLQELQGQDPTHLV
T4 sequence 2: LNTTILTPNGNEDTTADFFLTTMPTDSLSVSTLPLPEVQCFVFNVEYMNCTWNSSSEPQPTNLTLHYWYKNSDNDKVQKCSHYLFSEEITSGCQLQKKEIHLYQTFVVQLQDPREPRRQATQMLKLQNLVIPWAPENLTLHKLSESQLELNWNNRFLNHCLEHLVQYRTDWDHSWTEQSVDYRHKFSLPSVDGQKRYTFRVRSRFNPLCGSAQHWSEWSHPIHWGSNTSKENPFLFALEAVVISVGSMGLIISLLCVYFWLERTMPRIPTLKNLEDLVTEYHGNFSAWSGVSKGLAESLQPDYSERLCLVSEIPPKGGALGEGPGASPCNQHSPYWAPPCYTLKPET


How the values were obtained:
[1] = biological target: T1, cynomolgus IL-2Rγ (recombinant protein …); assay: biolayer interferometry (Octet Qk384), antibody captured on anti-human Fc (AHC) sensors, antigen 7.8-500 nM in solution, 1:1 fit, KD = kd/ka
Method: (§1) All kinetics measurement experiments were performed on a ForteBio Octet Qk384 instrument using anti-human Fc capture (AHC, 18-5005) sensors. The bispecific heavy chain-only antibodies and antigens were diluted to final concentrations in Kinetics buffer (0.02% Tween20, 0.1% BSA, 0.05% sodium azide, 1X PBS). Kinetics measurements were against the following antigens: human IL-2RB (AcroBiosystems), human TL-2RG (AcroBiosystems), cynomolgus IL-2RB (Sino Biological), cynomolgus IL-2RG (expressed and purified in house using ExpiCHO expression system followed by Ni-NTA his-tag purification). The antibodies were loaded on the AHC sensors at 5 μg/mL for maximum loading. Following a short baseline in Kinetics buffer, the sensors were exposed to a series of analyte concentrations (7.8 nM to 500 nM) for association step and background subtraction was used to correct for sensor drifting. Dissociation was monitored in Kinetics buffer. The capture surfaces were regenerated for 60s. All experiments were performed with shaking at 1000 rpm. ForteBio's data analysis software was used to fit the data to a 1:1 binding model to extract an association rate and dissociation rate. The KD was calculated using the ratio kd/ka.

[2] = biological target: T2, IL2RB, Human; assay: as above
Method: as §1

[3] = biological target: T3, human IL-2Rγ (recombinant protein and …); assay: as above
Method: as §1

[4] = biological target: T4, human IL-2Rβγ receptor on primary human …; assay: flow cytometry cell binding on human CD4+ T-cells (PBMC), gMFI as fold over secondary antibody only
Method: All washes and dilutions of cells, antibodies, and reagents were performed using flow buffer (1X PBS, 1% BSA, 0.1% NaN3, pH 7.4). Staining was performed in a round-bottom 96-well plate (Corning) seeded at 100,000 cells/well, and all incubations were performed at 4° C. or on ice. […] The cells were washed twice with 200 μL flow buffer. The cells were then incubated for 30 minutes with detection antibody (Goat F(ab′)2 Anti-Human IgG-PE, Southern Biotech) at 0.625 μg/mL in flow buffer. Following 2 more washes, the cells were resuspended in a final volume of 150 μL of flow buffer. The cells were analyzed on a BD FACSCelesta or a Guava easyCyte 8-HT flow cytometer. At least 3000 events were collected, and PE geometric mean fluorescence intensity was plotted as a fold over background (cells incubated with secondary detection antibody only). In some secondary screens involving human or cynomolgus PBMCs, an additional CD4 antibody (BioLegend) and/or CD8 antibody (BioLegend) was included to further characterize cell binding.

Binder	Kd [1] [nM]	Kd [2] [nM]	Kd [3] [nM]	EC50 (read off the curve) [4] [nM]	binding result [4]
BsAb-2 (IL2RB_F09G**IL2RG_F16B) (bispecific antibody, human IgG4, V domains shown, Heavy chain-only bispecific on silenced, stabilised human IgG4 Fc, knobs-into-holes, no light chains; not shown: C-terminal His-tag on the knob chain) V domain 1: QVQLQESGPGLVKSSETLSLTCTVSGGSISSSDWWSWVRQPPGKGLEWIGEIDHSGSTNYNPSLMSRVTISVDKSKNQFSLKLSSVTAADTAVYFCARGSWELTDAFDIRGQGTLVTVSS V domain 2: QVQLVESGGGLVKPGGSLRLSCAASGFTFSDYYMSWIRQAPGKGLEWVSYISSSGSTIYYADSVKGRFTISRDNAKNSLYLQMNSLRAEDTAVYYCARGDAVSITGDYRGQGTLVTVSS	50.2	93.4	17.1	~4	
BsAb-3 (IL2RB_F09G**IL2RG_F16C) (bispecific antibody, human IgG4, V domains shown, Heavy chain-only bispecific on silenced, stabilised human IgG4 Fc, knobs-into-holes, no light chains; not shown: C-terminal His-tag on the knob chain) V domain 1: QVQLQESGPGLVKSSETLSLTCTVSGGSISSSDWWSWVRQPPGKGLEWIGEIDHSGSTNYNPSLMSRVTISVDKSKNQFSLKLSSVTAADTAVYFCARGSWELTDAFDIRGQGTLVTVSS V domain 2: QVQLVESGGGLVKPGGSLRLSCAASGFTFNDYYMSWIRQAPGKGLEWVSHISSSGSTIYYADSVKGRFTVSRDNANNSLYLQMHSLRAEDTAVYYCARGDAVSITGDYRGQGTLVTVSS	3.58	96.7	1.43	~7	
BsAb-1 (IL2RB_F09C**IL2RG_F16A) (bispecific antibody, human IgG4, V domains shown, Heavy chain-only bispecific on silenced, stabilised human IgG4 Fc, knobs-into-holes, no light chains; not shown: C-terminal His-tag on the knob chain) V domain 1: QVQLQESGPGLVKPSGTLSLTCAVSGGSISSSDWWSWVRQPPGKGLEWIGEIDHSGSTNYNPSLMSRVTISVDKSKNQFSLKLSSVTAADTAVYFCGRGSWELSDAFDIRGQGTLVTVSS V domain 2: QVQLVESGGGLVKPGGSLRLSCAASGFTFSDYYMSWIRQAPGKGLEWVSSISSSGDTIYYADSVQGRFTLSRDNAENSLFLQMNSLRAEDTAVYYCARGDAVSITGDYRGQGTLVTVSS	4.87	18.5	1.79	~7	

Results, then the binder that gave them:

Kd [1] [nM]	Kd [2] [nM]	Kd [3] [nM]	EC50 (read off the curve) [4] [nM]	binding result [4]	Binder
5.81	82.4	2.93	~4		BsAb-4 (IL2RB_F09G**IL2RG_F18A) (bispecific antibody, human IgG4, V domains shown, Heavy chain-only bispecific on silenced, stabilised human IgG4 Fc, knobs-into-holes, no light chains; not shown: C-terminal His-tag on the knob chain) V domain 1: QVQLQESGPGLVKSSETLSLTCTVSGGSISSSDWWSWVRQPPGKGLEWIGEIDHSGSTNYNPSLMSRVTISVDKSKNQFSLKLSSVTAADTAVYFCARGSWELTDAFDIRGQGTLVTVSS V domain 2: QVQLVESGGDLVKPGGSLRLSCAASGFTFSDYYMSWLRQAPGKELEWVSHISSSGTTTYYADSVEGRFTITRDNAKNSLYLQMNSLRAEDTAVYYCARGAAVAPGFDSRGQGTLVTVSS
5.42	53.8	1.88	~7		BsAb-6 (IL2RB_F18E**IL2RG_F16A) (bispecific antibody, human IgG4, V domains shown, Heavy chain-only bispecific on silenced, stabilised human IgG4 Fc, knobs-into-holes, no light chains; not shown: C-terminal His-tag on the knob chain) V domain 1: QVQLVESGGGVVQPGRSLRLSCAASGFTFSSYGMHWVRQAPGKEREWVAVISYDGSNKYYTDSVKGRFTISRDNSKNTLYLEMNSLRAEDTAVYYCARDLDYDVLTGDPVGGFDIWGQGTLVTVSS V domain 2: QVQLVESGGGLVKPGGSLRLSCAASGFTFSDYYMSWIRQAPGKGLEWVSSISSSGDTIYYADSVQGRFTLSRDNAENSLFLQMNSLRAEDTAVYYCARGDAVSITGDYRGQGTLVTVSS
41.5	182	20.1		binds	BsAb-5 (IL2RB_F09K**IL2RG_F16B) (bispecific antibody, human IgG4, V domains shown, Heavy chain-only bispecific on silenced, stabilised human IgG4 Fc, knobs-into-holes, no light chains; not shown: C-terminal His-tag on the knob chain) V domain 1: QVQLQESSPGLVKPSETLSLTCTVSGGSISSSNWWSWVRQPPGKGLEWIGEISHSGSTNYNPSLKSRVTISVDKSKNQFSLRLSSVTAADTAVYFCGRGSWELTDAFDIRGQGTLVTVSS V domain 2: QVQLVESGGGLVKPGGSLRLSCAASGFTFSDYYMSWIRQAPGKGLEWVSYISSSGSTIYYADSVKGRFTISRDNAKNSLYLQMNSLRAEDTAVYYCARGDAVSITGDYRGQGTLVTVSS

From patent publication US20260102487A1 (Amgen, published 2026)
